The domain aggregation screens of Martell et al. (2025)

assay: soluble fraction after stress (log2 fold change); higher = more stays soluble; pooled small domains, quantitative proteomics; conditions: stress: 50 degC
In short: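 After stress at 50°C, the amount of each protein still soluble was measured. This was done on pooled custom libraries of small protein domains, using high-throughput quantitative proteomics. The figure given is a base-two log fold change and stands for aggregation propensity, with higher values meaning more protein stays in solution.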

Sequence	soluble fraction (log2)
HMTPPPTNSREWMEWGISHGLDANLDRSGQVVFYTDDRVVADAAELSGADLERDNMGQFVIYTGAYDKG	0.0665
HMRIQLNFSDQLLDDVMSEALKHIDRKSQEHHIEKQMDDEFMLVYIDARLIIQVIVNIINNAIKY	-0.00268
HMSMVGNIEKILVTGESKKSSELLAGRTENNRVVNFTGEKVLIGSMVNVRIEEVFPNSLGGSYLPS	-0.16
HMDPDAIVSKGQLGALNNAIGRFIAQGGSQTVVDKGIAKRNPNAKKPADLTNSQAESLEAAILKILNG	0.515
HMVSMSFDDYVNDAKEYESEGDKDKAYNSYLEAYKLNKSSEEVLDYLIDNTEDVTLKLNYVYEYLDL	-0.0996
HMDFEVGTVKWFNTKKGYGFITRDQGEDIFVHFRNIKGQGRRSLSDGERVSFVVTHGDKGLQADQVSP	-1.38
HMPAPMISIQLNGEPRNVQPGISIAALVREIGLEPAKVAVERNREIVPRSTLGDVLIEAGDQLEIVHFVG	0.159
HMPPLKYLKVKSYLEAVAVKAESAMRMPTVRELMNQFNVSLATVNRALSELENDGVIVRRQGSGIVAAG	0.147
HMELNEMEAWSLVSKALRNGTYGAVEEFSRLPPTVQEAVGNPDNLRNWATSDYKAIETVIQSNFIKTY	-0.12
HMKKTIIVHVVGEVNTPGIVELNEGARIIDAINGAGGKTEEADMSKINLAYVIEDGSQIYVPSIYE	-0.227
HMRPIDEVFGFFSRPENLTVITPSNLHFNILTPRPLEMKQGAVIDYTIKIFKVPIHWRTLITTYDPPFKFV	-0.288
HMGRLTTKIVLYDRIENIVPERRKELVADIEKRIGVKVEVLEIGHVDFVRDAAWLKVSYYLAPGE	-1.06
HMTPVTYELTVQSGAGQRIDKYLSEQLADLTRSYLQKLLKDGGVTVNGKTVKSNYKLSENDQIFLEVPDA	0.0372
HMEDIVDLVVEPEAAGRRLDAWLASRIERLSRSRIKALIESGHVAIGGATIVEAKKPVNSGDVVQLSVPEG	0.0215
HMDEWDDGDKPKLKITLYADDDYYFASGFSKSSVSLSGSDGTVTSVSRSSSDTLIVYVTLDALD	-0.0264
HMRTAKEVFYKELKGYMQNGDELSVKKIYSLFPEINPKTVSWRLHELVQHGKIHRTGHGYYALTQ	-1.07
HMDELNFGNFEGTRIFVQRTARKKSIALSIRDGTIVILAPRHIPNQEIQELITTNTDWIRAKLSQHAETKR	-1.75
HMDKGQRGWINLVSVPTARVIIDGYDTGHETPLYGYEVERGKRKVTLISLDGTYERTYEIRIEPGTTTRVR	-0.775
HMAIRPDAAVSSHAVKQRLQSLIRAEDPAAPLSDEALRLALSALGIGVSRRAVAKYRAEMGIPSSSQRKK	-0.0632
HMRVESVGDRIRRLRKSLGLTQVKLAQMLGIKAPSVVQWESDKTNLSGENLLNAAKLFGVTPDYILYGG	-0.0657
HMRTLGADLRALRKARGLTLAGMADNMGKSVGWMSQIERDISEPSISDLRALAKLLDVSVSSLFR	-2.23
HMGVAASEVHREKKESSLQWRQSYNVATDQRRQGKTYKEITEFLNGAELKNSKGGTWSISGVRKMLM	0.271
HMTDVHFIDVPVSEGHPWIGLTVKDLNLPPGTLLVFLNHPGEKSTVPNGDTVLREGDVLVLGATAYAG	-0.0795
HMLNEWIDYIDEHIKEELTAKNLATVFGYSERHFRNVFQIYYDIKLNDYIRRRKLYFAAQELKKG	-1.17
HMARTTIATPWDKINDLLQGGLGNGDFGLIFGNPGGGKSWSLVALGGFAVKLGYNVIHYTLE	-0.054

Sequence	soluble fraction (log2)
HMGQPRPLTAEDFDFLSDDEIAEMRKALSNGEMLRLRELIAQIGEKRPFLAERLLVLAKQYNYEDLSRLLE	-0.374
HMNFNYPVIVKNSRINVSGVLSAAKLYTINGQLLQSYKGSGEFTSKTLTKGIYILQVDNARTKVLV	-1.29
HMAKETLRANIKDYIQKQIASGVYRPGDRIVETQLAREMNVSQAPVREAILELVSLGLLEERPYSGHMVRQ	0.178
HMQSSTAISFNQFQKSWLSNNIKSFQLGEDKMTVRGSLKNGTQYETIVPSERLFQFIGQHPKDGQVQEMY	0.042
HMLNMSVYDKQLLRAVENNPFISQRELARELHWNVDRVKYYMKKWKDKGGLRHVGSSHKGYWEVLVRIEEK	-0.886
HMDIGNKIKELRTEQKMTQSDLAERLGVTKSSISSYENGSRLPSYDILLKIARIFKVSTDILLG	0.514
HMKVKGVYQLDNGYWGYRFTMLVNGKTVSQRRVKDESGNPFKTEKKAEKARLVAMAEEQTKANK	-2.11
HMLVSVSNYLGQNVDTVKSDLEALGLVVKLKEQQTDRESENGAVLEQSIEGGSKVSAGTPITLTYGK	0.187
HMKPSVEIKVNGGTGAGVVKKGGSITVTANEPAEGKVFTGWQDESGKIVSTQKEYTFTVAEGTTLTAVYED	0.45
HMTKVIEFLVSDEEHGVRADKAFVSHNQKLSRSYFKKLILNGNLYINNKVNLDPSYKLIKGSTVRIILPE	-2.07
HMQHRSRALHLQEELVRRYYDQAIAPFMIFWEMKANVTLDQLKELRAVVSPSLNEHPYTKQLDEYIRLAE	-0.505
HMEITSSNELKKMISNLINSENKNNPISDSNIVEKLKENDFLVARRTVAKYRKLLGIKNVNQRKE	-0.112
HMSVTVMVLRAAGDIQAGTEITDKHLATVEVGEYGLPEGIINDKDSILGKIALTDIAKGDYFFSQKLG	-0.134
HMTFEAKKGYINADMSVNVRETASTSATVIITLNPNTEVKVVGEENDFYKIEYKEYKGYVAKRLISDSQVQ	-0.166
HMEEKVEVPNLSGKTYQQAKALLESYGLVAAKGGEEESEEPVGKVSRWSSAGKSVKKGTTITVWISGGI	-0.0709
HMTPVIINESGGDQDTRIEGLNDNNLLYVDASTDRVGVGVATPTQKLDVNGDVAISGGSLYLSQ	-0.00396
HMFKYLLDTNIVIYVIKKRPIEVMGVFNQNANRMAISAITFSELQHGAEKSVRVQENLNAIEEFTTLIDI	0.181
HMRHRITEKDKQFRIGQQVWHSEYGKGMVLSVDGIGSSARLTVSFVSGKLAKIIGTFVSTEP	-1.68
HMVSKSDVQRALEKVEPVLRKLGGSTVEKVRVMARQATLVFEMLKSWWKGEIDLPWKTVAAMTVTLLYL	-0.266
HMNNPLPDLLKYFRKKKHLTQEQVAKQLSVSRASYASYETGRIIPGMQHIMELSRILEHDFLFAYTLAVQ	-2.34
HMRTIVSELNDIKGISDASAKKLLIRYGSFEAVREAVMKHEEEFELDMGKRITGALTRYFYEE	-1.61
HMNTLPASVQPKKGRLYAVIQTKENGKSKPVWRSLGLPEGSNKSKVNKAFREVVKQFEEEYAERLAR	0.0511
HMHLEKGEVVVPDLKGLTMRQVGELLGKLNLRYSFSGTGLAVKQFPESGQIVNQGDIIEVIF	-0.138
HMPTANFPAMAEALKKQYGPPTGEEETSWTHRLGGVFDIKIQSWNTPQGEMVLRSRGAAMDAGML	0.439
HMASAEDDLTRRARKLLTTSSMLKTLQPDTGERLQWLPQVVRLLAEGVEAPRIVVLIRRAMESG	-1.04

Sequence	soluble fraction (log2)
HMLASDYEEELSVLIKMSHKIAAGDDSLMDDFNDRVTMFESSYPINKATKDLTPVLERVNKFQT	-0.346
HMVVEDDTVLQAVKQAIEENPEAVSDYFEGKSKALNFLVGQVMRITRGKADPAKTNQMVVEELKNR	0.111
HMAAELHPYGADSYRGDNPPAGYEIKAKEESKKFHTPSSPWYGRTIAEIWFRTEEAAEAAGFINAVK	-0.23
HMKEDFPLLEQLRYTGEGADVTGTAEKMESIQALRSAADSGGFRATLGDIQQIPGGGLRFTLSLRGSR	0.0335
HMPNLAAAIGARVTIRLREASGGFRDIVGTLQRFGDGVNELLNSKGQIISFSEDEIAIWREIK	-0.816
HMTGPSYTTRRVEAAETMMEFLRTFPQAAPFIGDLYVKAQDWPLGEEIGDRLKKMLPPQLQE	-0.519
HMRQEIIEDSRKLLEESLKRYDLTYQEFIDTLKSKNMNVESTLINIIKNQSSLDLVLRNLGLIAP	-0.0959
HMSAEVEVPDVVGRQVALAVQLIETKKLRVNVAETYDAKVPPGQVISQSPEAGMKVKEERVITIYVSR	-0.167
HMASIEPLKTSIRIIWYINGEKDSETLLNTPPTAANKANAQKIADMVEQQIQMGIFNRDAVFPSSPKRQ	-1.87
HMIANDDEIRKVVLEVIEEQPKAVEDVKNGRDRILDFLVGQVMKKTRGKANPSLASNLMKEEIEK	0.177
HMPSTVRVPDVAETSLSEAKKTIEESGLEVGAIHKVNNDTVKKNHVIKTSPTIGSAKKEGSAIDIYVSKG	-0.0128
HMRDFLMDSTKNKLSKDQVQLSRIFLWFGNDFGSKAERLEFISRYSGMDFNQPKIDYLTYDWSLNQ	0.278
HMAKIPASTVVEIDGAPVVVAVRVNARARSYRLSIPHSGGPLLTLPPHGKWAEAEAFLLRHHNWLAARLHR	-2.47
HMVSLTGEWRPSKDALDILITKGGINPNFIDDAVPEFILYWRDRGDVSNTWDSKFIQHVRRQWQFYTGI	-2.93
HMEKGIVSNKTDKGYGFIRSSTGESIFVHINNVGKEAYEQLAKGSRVLFDYEVTDRGKRATKVMLEPSES	0.0488
HMRKPDLTSVRTLIRSVSKLARHLKISPNGIYRWISVNRIPGAHVVKVANYYDVEIRDLVHLTGSD	-1.39
HMALSLPDDMTIVRKDGSSLEVRLKSRTVTEIHFERISDSETFQFSIDQLDETTRELVEQYPVM	-0.0919
HMREVSPEDLALMRRIDAWHLEHPFAGARLLRDLLRPEGFQAGRRHIGTLMARMGIEALYRK	-0.458
HMNATLSSSYPTSVVTDGEIYKLTFGLNGKYNGQEQITVKPHGDSNIYDSGGLRAYQNTQSNNVVTLN	0.1
HMTNYYTVTFKEGDTVLKEVSVHSGDGVPYAVAPKRDDIVGWSYNGNTYTTDLNTLKIKKEVTFTAVT	-0.222
HMIGITTANLNVRTGTDTNYTSIAILPKGTKVNILEENVKPGWYKIQFDEIYAFVSSKYIKIQS	-1.12
HMRESLSEAERHPRYLEGEDVVRMFLLMGDLSRVEAEVIALQWNAQEADRVGLPQDAKVFRTRAR	-0.511
HMPSPEVELLEDLLSKTDEAEVEAAFHENQALVNDEFKAMLGSLIQELSKTQEADPEIIARIRFIQKLT	0.16
HMNNYFPAYKGSATSIAPALKQMGVNNSYAYRSKIAAVNNITGYRGTPAQNTQMLNLLKQGRLIK	0.362
HMRINIVKSKNAEQLYIIHSYRINGKNTSKIYKKLGTMADLLPLHNHDRDQVLAWAKEQARLATEQYDQEN	-0.855
